This passage reports Km and kcat results from PMC9433702, “Functional characterization of a catalytically promiscuous tryptophan decarboxylase from camptothecin-producing Camptotheca acuminata” (Frontiers in Plant Science, 2022).

Substrate in the data set: N[C@@H](Cc1c[nH]c2ccccc12)C(=O)O
Put plainly: HPLC-DAD quantitation of tryptamine, non-linear regression. The format is biochemical, Camptotheca acuminata. To be noted: 4 μM PLP, 0.16 μM enzyme, 50 mM phosphate buffer pH 7.6, 37°C.

B1: CaTDC3 (Camptotheca acuminata) (protein)
chain: MGSLDSNYDTESPASVGQFNPLDPEEFRKQAHCIVDFIADYYKNIESYPVLSQVDPGYLHSRLPKNAPYRSEPFESILKDVQKDIIPGMTHWMSPNFFAYFPATVSSAAFVGEMLCTCFNSVGFNWLASPAATELEMVVIDWLANMLKLPKSFMFSGTGGGVLQGTTSEAILCTLIAARDRALEIVGVKNFNKLVVYGSDQTHSTYAKACKLAGILPCNIRSIPTTADSNFSVSPLLLRRAIEADKAAGMVPLYICATVGTTSTTAIDPLSSLADVANDYGVWFHVDAAYAGSACICPEFRHYLDGIERADSLSLSPHKWLLSYLDCCCLWVKSPSLLVKALSTDPEYLKNQPSESKSVVDYKDWQVGTGRRFKALRLWFVMRSYGVANLQSHIRTDVQMAKMFEGFVKSDPRFEILVPRVFSLVCFRLNPISGSDPTGTEALNRKLLDWVNSTGRVYMTHTKVGGIYMLRFAVGATLTEKRHVSSAWKLIKEGADVLLKED
notes: homodimer by homology model
Regarding B1, the Km – broadly, the concentration of substrate that gives half-maximal velocity – stood at 48 ± 2 µM and the kcat worked out at 25.6 min^–1.
